Test results taken from paper PMC8508679.

Molecular target: Trop2 ectodomain (N120Q, N208Q) (human) (UniProt P09758)
Test: crystal structure; X-ray, 2.81 Å; sitting drop vapor diffusion, 1.6 M ammonium sulfate, 0.5 M NaCl, 13.3 mM EDTA, 0.1 M MES pH 5.8, protein at 10 mg/mL; crystal contacts analysed with PISA

stoichiometry N: 2
Substance: Trop2 ectodomain (N120Q, N208Q) (from UniProt P09758 27-274) (domain or fragment)
